Experimental data taken from the supplement of paper PMC12764529.
± gives the half width of the 95% confidence interval.

Assay: folding stability dG unfold from chymotrypsin proteolysis; higher = more stable
Summary of the method: (§1)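 Designed mini-proteins (under 80 residues, no cysteine) in a PA-tagged cDNA display construct were digested with trypsin and chymotrypsin. Each protease was used at 11 concentrations (threefold dilutions) plus a no-protease condition, followed by sequencing. K50 was inferred by Bayesian fitting of sequencing counts, and unfolding free energy was derived against a sequence-predicted unfolded-state K50 and a shared folded-state K50, per protease or combined. Only designs with AlphaFold2 dimer inter-PAE above 15 were kept.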

Row | Sequence | folding stability dG unfold
1 | SAGGSAGGGPPNAPLKIYTDDGSVNLLNLDGQPLLVTVHPDATAEITLPDGTKITVPIPPGANLSAGGSAGG [r6_105_TrMRF] | 0.628 ± 0.054 kcal/mol
2 | SAGGSAGGSGMMLKIEIPVEDPGSEEKAKKIAEELAKKLGLSPKEVKIKIKVIPKLPPEEILNSAGGSAGGS [r12_1066_JUSTAS] | 0.531 ± 0.11 kcal/mol
3 | SAGGGYRAVAVFERPDGRREVVFIEFESEEEALREAEEIARRFGLRLKELRVYPVEPLPPVRPELAGSAGGS [r8_364_TrMRF] | 5.17 ± 0.083 kcal/mol
4 | SAGGGPVVLTDPVKTEKSPDGTTYTLTREVFYDPSRGEPLKVRFTLTKVTNYPDGVKTETLEEKEVALSAGG [r13_596_JUSTAS] | 1.33 ± 0.19 kcal/mol
5 | SAGGSAGGSAGGSSLASDPTVPPDEPRTVTVLEPEPGGRLRVVTYEETPAGRRPVSALLSAGGSAGGSAGGS [r10_288_JUSTAS] | 1.09 ± 0.26 kcal/mol
6 | SAGGSATVEVATEPDGTVTVTTLETDPAEPRGTVTTTTVTVTTEPTPEPFLSSSTTTTTTATAPAPSAGGSA [r15_438_JUSTAS] | -0.291 ± 0.075 kcal/mol
7 | SAGGSAGGSASSLEESLRAELPEGKPARIEVKVELEKTPNGKLKVKEVKVTVTLPNGPVVGSAGGSAGGSAG [r3_247_JUSTAS] | 1.52 ± 0.072 kcal/mol
8 | SAGGSAGGVVLEVEIPYESEEEAREKAEEVLKELGLPESAKITKIEFYPGPGEKKSVKVYIKLESAGGSAGG [r6_284_JUSTAS] | 1.73 ± 0.018 kcal/mol
9 | SAGGSAGGSMKLEVEAELEVPLPNGKPKRFKVKFRVEPGESGVKVEVLEVDDPLVVEAIKKLFSAGGSAGGS [r12_743_TrMRF] | 3 ± 0.072 kcal/mol
10 | SAGGSAGGSGMTEVVAEKKYPNEVILVTKEPDSYYIVKVTLKDGKVVEKENLGKISPDDPSILSAGGSAGGS [r12_154_JUSTAS] | -0.458 ± 0.39 kcal/mol
11 | SAGDGITVNPEKVTLTLDITLPDGTVLRVTVTLTPDGVEVTVEPVPVPPLPGATSPEEAEELLKQALASSAG [r5_272_TrMRF] | 2.37 ± 0.086 kcal/mol

Assay: folding stability dG unfold (combined trypsin and chymotrypsin); higher = more stable
Summary of the method: as §1

Row | Sequence | folding stability dG unfold
12 | SAGGNKGKTIQINFMIDPEDPEMMIEKISKWLQAKGFKIESIEPRPVGNRWMYSATFRVPNGREITIWSAGG [r13_421_TrROS] | 1.77 ± 0.17 kcal/mol
13 | SAGGSAGPKVEVELFPVPPFAPGSEFVLLVKTEDGDVILQRFRVKLEGNEPKIEPLGSIVLKPDELSAGGSA [r15_636_TrMRF] | 1.78 ± 0.1 kcal/mol
14 | SAGGSAGGKYQEFEYMIMFPDGGMFRVKIEYSPNPGQVKIKIEFPGGEREITIPPGAPITIMPMSAGGSAGG [r6_927_TrROS] | 2.74 ± 0.23 kcal/mol
15 | SAGGSAGGSAGGLPEDIELEVEPLEITLEDGSRVRILIARAPDPEIAAIDIEVFPPDDPKSAGGSAGGSAGG [r11_338_TrMRF] | 0.559 ± 0.13 kcal/mol
16 | SAGGSAGGSPDAPPPPVNVVVPIPESELLSEEELPGGTTLRTYRLPDGTEITVRTAPDGRVTVDSAGGSAGG [r6_119_JUSTAS] | 3.57 ± 0.13 kcal/mol
17 | SAGGMLPGLRPLLLAVLVPAEEPLEPEQVRELAEELRRELEEKGYGFAFRAIELEDFQLIIVDVVDPFSAGG [r13_442_TrMRF] | 3.11 ± 0.051 kcal/mol
18 | SAGGSADEELLEKAKEALKKAEPPKIVVLNLPLPSGKELKVTLDPTTNKFTAEFPDGGSKTFDFPESAGGSA [r15_977_JUSTAS] | 0.858 ± 0.12 kcal/mol
19 | SAGGSAGGDESSTPPVTTTSTTPLPDGSTVTVTSTTTYPDSTTTTTKTYSNGSTTTSTTTTPGSSAGGSAGG [r6_910_JUSTAS] | -0.285 ± 0.13 kcal/mol
20 | SAGGSAGGSAGGKTYTADEIKKIKKINGKWYVEIDGKTYEIPAKDIKIKKGDKIKIYPVSAGGSAGGSAGGS [r10_665_TrROS_Hall] | 1.57 ± 0.16 kcal/mol
21 | SAGGSAGGSVLVIDSPEQIKKAIKEFKDNGAKSIHIRGPGRYWVIQIDPKEPKVKVERVPLGQSAGGSAGGS [r12_368_TrROS] | 0.643 ± 0.16 kcal/mol
22 | SAPMKIVKKTDNTLYIYDKKTKKIVKITINDGTITVEEITYDKKTKEKKVETKTIKLSEEQLKKLKKLLSAG [r14_245_TrROS_Hall] | 1.23 ± 0.14 kcal/mol
23 | SAGGSAGGMKVTLTPVSGEKYEIEVESEEEAKEKVEKLAKKLGIPGEVKVTIEKGDKTYELTIISAGGSAGG [r6_532_JUSTAS] | 2.39 ± 0.42 kcal/mol
24 | SAGGSSMEVEIDTSKSTTTYTHPSGEKVATRSLVLTPPSPGDPLRFLNVEFEKLPDGSVVVKKIVGSAGGSA [r2_362_JUSTAS] | -0.0806 ± 0.22 kcal/mol
25 | SAGGPPPKWVKIDIFIFIYNPDNGRPIFIRITSIEIRLDENNELDVEIEFEVFDPNGKPVKYTMTFKSAGGS [r16_200_TrROS] | 4.45 ± 0.24 kcal/mol
26 | SAGGSAGGKKKIKPPEVTIKIKNKDGSVFEAKITKVEYDEETKKLYLEIEIEVNGKKYKLTIELSAGGSAGG [r6_962_TrROS_Hall] | 4.16 ± 0.76 kcal/mol
27 | SAGGSAGGSAGGSGPPSLPGVLVEIPEPLPGPEGTEFSDPKGYKYTYDPSNGKVLVERASAGGSAGGSAGGS [r4_78_JUSTAS] | -0.242 ± 0.19 kcal/mol
28 | SAGGSEAEIVSVEFDEETGTISVLVRNSDGSLYRAEIRFERLPDGSLLVTIKVTLPDGKELTFVFPSAGGSA [r2_488_TrROS_Hall] | 5.78 ± 0.19 kcal/mol
29 | SAGGSAGGSAMWVIRIWFPNGNKRTIPIPPNEKLTAEEILDEFRIPNGREMRILRVEIWPYSAGGSAGGSAG [r3_465_TrROS] | 2.43 ± 0.042 kcal/mol
30 | SAGKIKKIEVKEVTNENGEKYKKITIEVEKEGKKVEIIVNKNGEKFIKVEKNGKTITLPLDEALELLKKSAG [r5_157_TrROS_Hall] | 1.23 ± 0.3 kcal/mol
31 | SAGGSAGGSAGTMTAEEIAKALGAKVVEVYPDKVVIEIEVDGKKYRITINEDGEVTVEEVSAGGSAGGSAGG [r17_252_TrROS_Hall] | 4.02 ± 0.21 kcal/mol
32 | SAGGSAGGFFHIEIEWRPVKLEDLPEEDAANGKELKPGDEIWVIVKIEIYPMPPPKFDKDGELNSAGGSAGG [r6_547_TrROS] | 2.77 ± 0.2 kcal/mol
